Experimental data reported in US20080044423A1 (AstraZeneca / MedImmune, published 2008).
“And” between values parts separate entries of the source, which are not always exact repeats. Equal entries are not always repeated. Where two headings read alike, the source gives them in different places.

B1: murine IL-17A (R & D Systems) (ligand, UniProt Q62386 22-158, looked up)
chain: TVKAAAIIPQSSACPNTEAKDFLQNVKVNLKVFNSLGAKVSSRRPSDYLNRSTSPWTLHRNEDPDRYPSVIWEAQCRHQRCVNAEGKLDHHMNSVLIQQEILVLKREPESCPFTFRVEKMLVGVGCTCVASIVRQAA

Columns and labels:
TINA1 IgG = test: DELFIA epitope competition vs biotinylated human IL-17A on immobilised IgG
TINA10 IgG = test: as above
TINA51 IgG = test: as above
cynomolgus IL-17A [1] = molecular target: T1, cynomolgus IL-17A (cynomolgus, UniProt Q16552 24-155 (human entry), limits assumed); test: cell-based or functional assay
T1 chain: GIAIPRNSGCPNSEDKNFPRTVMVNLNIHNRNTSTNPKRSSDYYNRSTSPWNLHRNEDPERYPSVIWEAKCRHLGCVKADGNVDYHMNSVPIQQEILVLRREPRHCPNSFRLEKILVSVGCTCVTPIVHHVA

[2] = molecular target: human IL-17A (HT1080 assay of Example 1, source not stated) (human, UniProt Q16552 24-155); test: cell-based or functional assay
cynomolgus IL-17A [3] = molecular target: T1, cynomolgus IL-17A; test: cell-based or functional assay
[4] = molecular target: T2, human IL-17A derived from the HEK-EBNA expression system (human, UniProt Q16552 24-155); test: cell-based or functional assay
[5] = molecular target: T3, human IL-17A, untagged, E. coli derived (in house or Peprotech) (human, UniProt Q16552 24-155); test: cell-based or functional assay
[6] = molecular target: T3, human IL-17A, untagged, E. coli derived …; test: cell-based or functional assay; remark: listed apart in the source
[7] = molecular target: T3, human IL-17A, untagged, E. coli derived …; test: cell-based or functional assay; remark: listed apart in the source
[8] = molecular target: B1; test: DELFIA epitope competition vs biotinylated human IL-17A on immobilised IgG
human IL-17B (Peprotech) [9] = molecular target: T4, human IL-17B (Peprotech) (human, UniProt Q9UHF5 21-180, limits assumed); test: as above
T4 sequence (looked up): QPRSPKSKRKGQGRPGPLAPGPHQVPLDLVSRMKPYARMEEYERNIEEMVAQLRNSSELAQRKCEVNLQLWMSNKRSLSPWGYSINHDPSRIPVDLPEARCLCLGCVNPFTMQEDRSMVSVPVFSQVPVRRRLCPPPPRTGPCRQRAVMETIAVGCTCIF

[10] = molecular target: T5, human IL-17C (R & D Systems) (human, UniProt Q9P0M4 19-197); test: as above
T5 sequence (looked up): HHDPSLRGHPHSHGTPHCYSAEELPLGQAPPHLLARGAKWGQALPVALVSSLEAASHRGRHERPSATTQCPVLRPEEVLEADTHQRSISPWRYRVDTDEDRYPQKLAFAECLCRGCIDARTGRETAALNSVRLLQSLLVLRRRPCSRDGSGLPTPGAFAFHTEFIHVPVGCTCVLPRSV

human IL-17D (Peprotech) [11] = molecular target: T6, human IL-17D (Peprotech) (human, UniProt Q8TAD2 18-202, limits assumed); test: as above
T6 sequence (looked up): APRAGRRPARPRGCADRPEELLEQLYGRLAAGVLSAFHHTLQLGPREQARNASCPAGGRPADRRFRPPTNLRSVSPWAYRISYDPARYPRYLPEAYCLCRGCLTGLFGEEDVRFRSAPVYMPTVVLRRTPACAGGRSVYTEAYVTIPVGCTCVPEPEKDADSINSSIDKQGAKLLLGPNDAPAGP

[12] = molecular target: T7, human IL-17E (R & D Systems) (human, UniProt Q9H293 33-177); test: as above
T7 sequence (looked up): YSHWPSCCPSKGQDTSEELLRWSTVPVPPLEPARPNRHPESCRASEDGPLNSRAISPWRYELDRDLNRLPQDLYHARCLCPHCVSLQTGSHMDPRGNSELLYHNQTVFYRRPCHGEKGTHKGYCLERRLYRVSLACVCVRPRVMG

human IL-17F (Peprotech) [13] = molecular target: T8, human IL-17F (Peprotech) (human, UniProt Q96PD4 31-163, limits assumed); test: as above
T8 sequence (looked up): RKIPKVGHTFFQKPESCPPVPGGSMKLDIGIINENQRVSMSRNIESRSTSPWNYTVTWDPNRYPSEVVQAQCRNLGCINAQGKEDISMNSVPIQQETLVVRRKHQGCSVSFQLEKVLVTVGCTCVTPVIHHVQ

[14] = molecular target: T2, human IL-17A derived from the HEK-EBNA …; test: cell-based or functional assay; remark: listed apart in the source
[15] = molecular target: native IL-17A derived from primary human T cells (human, UniProt Q16552 24-155, N-linked glycosylation); test: cell-based or functional assay
[16] = molecular target: T3, human IL-17A, untagged, E. coli derived …; test: cell-based or functional assay; remark: listed apart in the source
[17] = molecular target: T3, human IL-17A, untagged, E. coli derived …; test: cell-based or functional assay; remark: listed apart in the source
[18] = molecular target: T3, human IL-17A, untagged, E. coli derived …; test: cell-based or functional assay; remark: listed apart in the source
[19] = molecular target: B1; test: HTRF epitope competition vs HIS FLAG IL-17A binding the IgG
human IL-17B (Peprotech) [20] = molecular target: T4, human IL-17B (Peprotech); test: as above
[21] = molecular target: T5, human IL-17C (R & D Systems); test: as above
human IL-17D (Peprotech) [22] = molecular target: T6, human IL-17D (Peprotech); test: as above
[23] = molecular target: T7, human IL-17E (R & D Systems); test: as above
human IL-17F (Peprotech) [24] = molecular target: T8, human IL-17F (Peprotech); test: as above
[25] = molecular target: T2, human IL-17A derived from the HEK-EBNA …; test: estimated from pA2 (Schild) analysis in the HT1080 IL-6 release assay

With B1 the “Fold difference from Human IL-17A” value (TINA1 IgG) was 12 fold, the IC50 (TINA1 IgG) was 98 nM and the “% (printed in the IC50 column, presumably inhibition)” value (TINA10 IgG) was 50%. The “Fold difference from Human IL-17A” value (TINA51 IgG) was 0.7 fold and the IC50 (TINA51 IgG) was 35 nM.

B2: Antibody 1 IgG1 (antibody, V domains shown)
VH: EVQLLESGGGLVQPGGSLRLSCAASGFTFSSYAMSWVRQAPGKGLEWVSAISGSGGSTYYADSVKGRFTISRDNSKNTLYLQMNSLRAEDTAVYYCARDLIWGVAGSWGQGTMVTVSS
VL: NFMLTQPHSVSESPGKTVTISCTRSSGSLANYYVQWYQQRPGSAPTIVIFANNQRPSGVPDRFSGSIDSSSNSASLTISRLKTEDEADYYCQSYDDSSVVFGGGTKLTVL
notes: human IgG1, lambda; constant regions not in the listing; also called Antibody 01; TINA12 IgG1
B2 was tested, and the “HT1080 IL-6 release, IgG IC50” value (cynomolgus IL-17A [1]) was 172 nM, the “HT1080 IL-6 release, IgG IC50” value [2] was 22 nM and the “Fold difference in cross-reactivity (IgG)” value (cynomolgus IL-17A [3]) was 6 fold. For the same binder, the “HT1080 IL-6 release, IgG IC50” value (cynomolgus IL-17A [3]) was 144 nM, the “HT1080 IL-6 release, IgG IC50” value [4] was 23 nM and the “chondrocyte IL-6 release, geometric mean IC50 at 0.2 nM IL-17A” value [5] was 29.9 nM. The “chondrocyte IL-6 release, geometric mean IC50 at 2 nM IL-17A” value [5] was 75.7 nM, the “chondrocyte IL-8 release, geometric mean IC50 at 0.2 nM IL-17A” value (shortened to “chondrocyte IL-8 release … at 0.2 nM IL-17A”) [6] was 18.1 nM and the “chondrocyte IL-8 release, geometric mean IC50 at 2 nM IL-17A” value (shortened to “chondrocyte IL-8 release … at 2 nM IL-17A”) [6] was 44.5 nM. The “chondrocyte MMP13 release, IC50 at 2 nM IL-17A” value [7] was 147 nM and > 400 nM, the “chondrocyte MMP13 release, geometric mean IC50 at 0.2 nM IL-17A” value [7] was 110 nM and the binding result [8] was “no binding (tested: approx 100:1 over labelled IL-17A)”. B2: no binding (tested: approx 100:1 over labelled IL-17A) (human IL-17B (Peprotech) [9]); no binding (tested: approx 100:1 over labelled IL-17A) [10]; no binding (tested: approx 100:1 over labelled IL-17A) (human IL-17D (Peprotech) [11]). B2: no binding (tested: approx 100:1 over labelled IL-17A) [12]; no binding (tested: approx 100:1 over labelled IL-17A) (human IL-17F (Peprotech) [13]).

B3: Antibody 2 IgG1 (antibody, V domains shown)
VH: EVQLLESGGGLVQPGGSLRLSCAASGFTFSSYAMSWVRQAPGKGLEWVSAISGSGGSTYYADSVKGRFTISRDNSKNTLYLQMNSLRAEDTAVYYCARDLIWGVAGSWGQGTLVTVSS
VL: NFMLTQPHSVSESPGKTVTISCTRSSGSLANYYVQWYQQRPGSSPTIVIFANNQRPSGVPDRFSGSIDSSSNSASLTISGLKTEDEADYYCQSYDPHSVVFGGGTKLTVL
notes: human IgG1, lambda; constant regions not in the listing; also called Antibody 02
B3 was tested, and the “Fold difference in cross-reactivity (IgG)” value (cynomolgus IL-17A [3]) was 12 fold, the “HT1080 IL-6 release, IgG IC50” value (cynomolgus IL-17A [3]) was 18.3 nM and the “HT1080 IL-6 release, IgG IC50” value [4] was 1.5 nM. The “HT1080 synergised IL-6 release (125 pM human IL-17 + 25 pM human TNFα), IgG IC50” value [14] was 0.41 nM, the “T cell supernatant induced IL-6 production in HT1080 cells, IC50” value [15] was 0.25 nM and the “chondrocyte IL-6 release, geometric mean IC50 at 0.2 nM IL-17A” value [16] was 1.52 nM. For the same binder, the “chondrocyte IL-6 release, geometric mean IC50 at 2 nM IL-17A” value [16] was 5.51 nM, the “chondrocyte IL-8 release … at 0.2 nM IL-17A” value [6] was 2.3 nM and the “chondrocyte IL-8 release … at 2 nM IL-17A” value [6] was 7.91 nM. For the same binder, the “chondrocyte IL-8 release … at 0.2 nM IL-17A” value [17] was 1.49 nM, the “chondrocyte IL-8 release … at 2 nM IL-17A” value [17] was 7.18 nM and the “cartilage explant synergised IL-6 response, Mean IC50” value [18] was 3.39 nM. B3: no binding [19]; no binding (human IL-17B (Peprotech) [20]); no binding [21]. B3: no binding (human IL-17D (Peprotech) [22]); no binding [23]; no binding (human IL-17F (Peprotech) [24]). For the same binder, the Kd [25] was 0.188 nM.
